From article PMC3234234, “A Host Small GTP-binding Protein ARL8 Plays Crucial Roles in Tobamovirus RNA Replication” (PLoS Pathogens, 2011)

Tests used:
[1] = molecular target: AtARL8a-Cub-PLV (split-ubiquitin bait) (Arabidopsis thaliana) (UniProt Q8VY57); assay: two-hybrid; split-ubiquitin assay in yeast reporter strain L40; Cub-PLV fusion as bait, NubG fusion as prey; beta-galactosidase activity (Miller units)
[2] = molecular target: T1, AtTOM1-Cub-PLV (split-ubiquitin bait) (Arabidopsis thaliana, UniProt Q9FEG2 1-291); assay: as above; details: partners not purified
T1 construct: Arabidopsis thaliana TOM1, seven-pass transmembrane protein; source: yeast two-hybrid fusion (split-ubiquitin, reporter strain L40); not shown: Cub-PLV, C-terminal, kept
T1 sequence (looked up): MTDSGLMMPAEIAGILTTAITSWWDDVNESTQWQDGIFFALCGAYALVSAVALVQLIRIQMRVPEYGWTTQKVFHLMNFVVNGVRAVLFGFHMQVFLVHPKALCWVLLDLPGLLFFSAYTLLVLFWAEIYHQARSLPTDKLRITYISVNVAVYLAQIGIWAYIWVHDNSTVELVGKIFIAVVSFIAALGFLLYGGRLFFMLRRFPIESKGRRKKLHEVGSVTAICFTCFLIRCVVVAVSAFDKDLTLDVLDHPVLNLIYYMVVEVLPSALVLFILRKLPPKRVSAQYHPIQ

Molecule “NubG-HEL: helicase domain polypeptide of ToMV replication proteins (residues 648-1116 of the 130K protein) (domain or fragment)” has a fold weaker signal (beta-galactosidase) than the TOM1-helicase domain pair [1] of 13 times weaker.

B1: AtARL8a-NubG (split-ubiquitin prey) (natural protein, Arabidopsis thaliana, UniProt Q8VY57 1-184, looked up)
chain: MGLLEAFLNWLRSLFFKQEMELSLIGLQNAGKTSLVNVVATGGYSEDMIPTVGFNMRKVTKGNVTIKLWDLGGQPRFRSMWERYCRAVSAIVYVVDAADPDNLSVSKSELHDLLSKTSLNGIPLLVLGNKIDKPGALSKEALTDEMGLTSLTDREVCCFMISCKNSTNIDQVIDWLVKHSKSKN
notes: Arabidopsis thaliana ARL8a; 'a DNA fragment corresponding to the AtARL8a-coding region' put in place of TOM1 in pTN-TOM1-NubG; also called ARL8-NubG; source: yeast two-hybrid fusion (split-ubiquitin, reporter strain L40); not shown: NubG, C-terminal, kept
B1 was tested, and the “fold weaker signal (beta-galactosidase) than the TOM1-helicase domain pair” value [2] was 6 times weaker.
